Among the data in paper PMC2187453 are Kd values, retold here.

This assay concerns the target TCGF receptor on B6.1 cells (mouse CTL line B6.1.SF.1) (mouse (endogenous in the B6.1 CTL line)). Briefly: radioligand binding.

Chain of T cell growth factor (TCGF), human, biosynthetically radiolabeled (3H-TCGF) (P60568 21-153): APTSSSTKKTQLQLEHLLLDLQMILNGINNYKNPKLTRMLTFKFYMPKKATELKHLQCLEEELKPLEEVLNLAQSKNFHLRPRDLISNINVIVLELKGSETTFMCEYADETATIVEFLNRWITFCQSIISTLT

In turn, “T cell growth factor (TCGF), human, biosynthetically radiolabeled (3H-TCGF) (from UniProt P60568 21-153) (ligand)” returned a Kd of 0.022 nM.

What is called Kd is the equilibrium constant for the complex coming apart. High values mean weaker binding, low ones tighter binding.
